Measured values from the nanobody polyreactivity screen of Harvey et al. (2022).

Assay: yeast display, Sf9 membrane polyspecificity reagent, FACS + sequencing; frameworks hold sequencing errors
Outline: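 A nanobody's polyreactivity label depends on the gate it was sorted from. Yeast display cells were stained with 10% biotinylated, detergent-solubilized Sf9 membrane reagent for 1 hour at 4 °C, enriched on streptavidin microbeads and sorted by FACS. The low and high (top ~1%) gates were set on anti-HA fluorescence for expression and streptavidin fluorescence for reagent binding.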

Row | Sequence | polyreactivity (PSR sort gate)
1 | QVQLVESGGGLVQAGGSLRLSCAASGSILTDNAMRWYRQAPGKERELVAAITSGGSTYYADSVKGRFTISRDNAKNTVYLQMNSLKPEDTAVYYCNADPYTYSYGMYYWGQGTQVTVSS | low polyreactivity
2 | QVQLVESGGGLVQAGGSLRLSCAASGIIFLYYAMGWYRQAPGKEREFVAAISWSGGRTYYADSVKGRFTISRDNAKNTVYLQMNSLKPEDTAVYYCAATYALRKTGYDYWGQGTQVTVSS | high polyreactivity
3 | QVQLVESGGGLVQAGGSLRLSCAASGLTFGLYAMGWYRQAPGIERELVAGITAGGRTYYADSVKGRFTISRDNAKNTVYLQMNSLKPEQTAVYYCATVNYRSGRGYRRVYTAYYYWGQGTQVTVSS | low polyreactivity
4 | QVQLVESGGGLVQAGGSLRLSCAASGSIFYPYAMGWYRQAPGKERELVAAISSGGTTYYADSVKGRFTISRDNAKNTVYLQMNSLKPEDTAVYYCGAGFYLRAVWMDYWGQGTQVTVSS | high polyreactivity
5 | QVQLVESGGGLVQAGGSLRLSCAASGLTFGPYAMGWYRQAPGKERELVAAISLSDTDTYYAASVKGRFTISRDNAKNTGYLQMNSLKPEDTAVYYCAAEDGGLYDYWGQGTQVTVSA | high polyreactivity
6 | QVQLVESGGGLVQAGGSLRLSCAASGSIFGVYTMGWYRQAPWKERELVAAISRNGGSTYYEDSVKGRFTISRDNAKNNVYLQMNSLKPEDTAVYYCATSTSRRYGSRHNYWGQGTQVTVSS | high polyreactivity
7 | QVQLVESGGGLVQAGGSLRLSCAASGSIFYYYAMGWYRQAPGKERELVASISRSGGSTFYADSVKGRFTISRDNAKNTVYLQMNSLKPEDTAVYYCATGWYYSPYNYWGQGTQVTVSS | high polyreactivity
8 | QVHIVESGGGLVQAGGRLRLSCADSGTTFSYYTMGWYRQSPGKERELVAAISTSGGSTYYADSVKGRFTISRDNAKNTVYLQMNSLKPEDTAVYYCDARYGRYYKYNYWGQGTQVTVSS | high polyreactivity
9 | QVQLVESGGGLVQAGGSLRLSGAASGRIFVRNAMGWYRQAPGKERELVADITNGGSTNYADSVKGRFTISRDNAKNTVYLQMNSLKPEDTAVYYCAADTLGVYDGDYWGQGTQVTVSS | low polyreactivity
10 | QVQLVESGGGLVQAGGSLRLICAASGSILVSYARGWYRQAPGKERELVAAITSGGRTKYADSVKGRFTISRDNAKNTVYLQMNSLKPEDNAVYYCAADDPLSYQFDYWGQGTQVTVSS | high polyreactivity
11 | QVQLVESGGGLVQAGGSLRLSCAASGRTFYWYTMGWYRQAPGKERELVAAITYRAGSTYYADSVKGRFTISRDNAKNTVYLQMNSLKPEDTAVYYCNADPPPEYYPDKDNYWGQGTQVTVSS | low polyreactivity
12 | QVQLVESGGGLVQAGGSLRLSCAASGGTFVGYAMGWYRQAPGKERELVASITRRGGNTYYADSVKGRFTISRDNAKNTVYLQMNSLKPEDTAVYYCDRRYYYQYRYDYWGQGTQVTVSS | high polyreactivity
13 | QVQLVESGGGLVQAGGSLRLSCAASGFTFRRYAMGWYRPAPGKERELVAAITPNGGSTYYADSVKGRFTISRDNAMNNFYLQMNRLKPEDTAVYYCNAVLYTPVYDGFDSWGQGTQVTVSS | high polyreactivity
14 | QVQLVESGGGLVQAGGRVRLSCAASVSTFKQYSMGWYRQATGKERELVAAITRGGRTNYAYSVKGRFTISRDNAKNTVSLQMNSLKQEDTAVYYCAKLLSGYGRWWYDYWGQGTQVTLSS | high polyreactivity
15 | QVQLVESGGGLVQAGGSLRLSCAASGSIFYLYAMGWYRQEPGKERELVAAINFRGGSTYADSVKGRFTISRDNAKNTVYLQMNSLKPEDTAVYYCAAKAAYRMNYWGQGTQVTVSS | high polyreactivity
16 | QVQLVESGAGLVQAGGSLRLSCAASGLTIYVNAMGWYGQAPGKERELVATISGSGSTNYADSEKGRFTISRDDAKNTVYLQMNSLKPEDTAVYYCNAGWAQDPSNYWGQGTQVNVSS | low polyreactivity
17 | QVQLVESGGGLVQAGGSLRLSCAASGSTFGTNVMGWYRQAPGKERELVAAISNGGSTNYADSVKGRFTISRDNAKNTVYLQMNSLKPEDTAVYYCEYDYWGQGTQVTVSS | low polyreactivity
18 | QVQLVESGGGLVQAGGSLRLSCAASGIIFSYYAMGWYRQAPGKERELVAAITSGGGSTYYADSVKGRFTISRDNAKNTVYLQMNSLKPEDTAVYYCAADYNRELGRKFEYWGQGSQVTVSS | high polyreactivity
19 | QVQLVESGGGLVQAGGSLRLSCAASGRIFKVYAMGWYRQAPGKERELVAAINWSTGSTYYADSVKGRFTISRDNAKNTVYLQMNSLKPEDTAVYYCAAKNLYSYDWGQGTQVTVSS | high polyreactivity
20 | QVQLVESGGGLVQAGGSLRLSCAASGRIFKWYAMGWYRQAPGKEREFVAAINWNGDSTHYADSVKGRFTISRDNAKNTVYLQMNSLKPEDTAVYYCNARVFVTRSYYWGQGTQVTVSS | low polyreactivity
21 | QVQLVESGGGLVQAGGRLRLSCAASGFIFDTKAMGWYRKAPGKERELGARISSSAGSTYYADSVKGLFTISRDNAKNTVYLQMNSLKPEDTAVYYCNRTYRLPVYKVDYWGQGTQVTVSS | low polyreactivity
22 | QVQLVESGGGLVQAGGSLRLSCAASGRTFSKYTMGRYRQAHGKEMEFGAAISYSGGSTYYADSVKGRFTISRDYAKKTVYLQMNSLKPEDTAVYYCAARASTYKYYYWGQGTQVTVSS | high polyreactivity

Row | Sequence | polyreactivity (PSR sort gate)
23 | QVQLVESGGGLLQAGGSLRLSCAASGFTFSRYAMGWYRQAPRKEMELVATISRSGGTTYYADSVKGRFTISRDNAKNTVYLLMNSLKPEDTAVYYGNTDKIWGLQYYYWGQGTQVTVSS | high polyreactivity
24 | QVQLEESGGGLVQAGGSLRLSCAATGSTFYDYAMGWYRQAPGKERELVASITFTGGSTYYADSVKGRFTISRDNAKNTVYLQMISLKPEDTAVYFCAAYGWRVHDRWFFERDYWGLGTQVTVSS | high polyreactivity
25 | QVHLVESGGGLVQAGGSLSLSCDASGRTFYENAMGWYRQAPGKERELVAAISQSSGSTYYADSVKGRFTISRDNAKNTVYLQMNSLKPEDTAVYYCAAVQGANYYNEFDYWGQGTQVTVSS | high polyreactivity
26 | QVQLVESGGGLVQAGGSLRLSCAASGRIFTPYAMGWYRQAPGKEREFVATISFRGDSTYYADSVKGRFTISRDNAKNTVYLQMNSLKPEDTAVYYCNAATNRRTSDYWGQGTQVTVSS | high polyreactivity
27 | QVQLVESGGGLVQAGGSLRLSCAASGSTFYGYAMGWYRQAPGKERELVASITTRGGRTNYADSVKGRFTISRDNAKNTVYLQMNSLKPEDTAVYYCATYSYVTRYARWGEYDYWGQGTQVTVSS | high polyreactivity
28 | QVQLVESGGGLVQAGGSLRLSCAASGRIFPYYDMGWYRQAPGKEMELVATITWRGGITYYADSVKGRFTISRDNAKNTVYLQMNSLKPEDTAVYYCAVRKVYRSSFDYWGQGTQVTVSS | high polyreactivity
29 | QVQLVESGGGLVQAGGSLRLSCAASGFSFRYYAMGWYRQAPGKERELVAAISSGGNTRYADSVKGRFTISRDNAKNTVYLQMNSLKPEDTAVYYCARRPGAWKYVYTGDYWGQGTQVTVSS | high polyreactivity
30 | QVHLVESGGGLVQAGGSLRLICAASGRTFWYYAMGWYRQAPGKERELVAAITSGGSTNYADSVKRRFTISRDNAKNTVYLQMNILKPEDTAVYYCATDNPVFEYDYCGQGTQVTVSS | low polyreactivity
31 | QVQLVESGGGYVQAGGSLRLSCAASGSIFRGYAMGWSRQAPGKEWELVATIDSSAGSTYYADSVKGRYTISRDNAKNTVYLQMNSLKPEDTAVFYCATDPYGYYYSGYDYWGQGTQVTVSW | low polyreactivity
32 | QVQLVESGGGLVQAGGSLRLSCAASGSTFACNAMGWDRQAPGKERELVAAISWSGGSTYYADSVKGRFTISRDNAKNTVYLQMNSLKPEDTAVYYCAARRYASRTGYLYDFWGQGTQVTVSS | high polyreactivity
33 | QVQLVESGGGLVQAGGSLRLSCAASGITFTSYVMGWYRQAPGKERELVAAIRWSGGRTYYADSVKGRFTISRDNAKNTDYLQMNTLKPAATAVYYCNRVTRSHVDYWGQGTQVTVSS | high polyreactivity
34 | QVQLVESGGGLVQAGGSLRLSCAASGRTFGGNAMGWYRQAPGKERELVAVIRSTGGSTYYADSVKGRFTISRDTAKNTVYVQMNSLKPEDTAVYYCAKGRGRNFGYWGQGTQVTVSS | high polyreactivity
35 | QVQLVESGGGLVQAGGSLRLSCAASGRTLSFYAMGWYRQAPGKERELVASISSGGRTYYADSVKGRFTISRDNAKNTVYLQMNSLKPEDTAVYYCAVGYRSRYRSRDDYWGQGTQVTVSS | high polyreactivity
36 | QVQLVESGGGLVQAGGSLRLSCAASGFTFAAYDKGWSRQAPGKELELVAAITKSGASTYYADSVKGRFTISRDIAKNTFYLQMNSLKPEDTAVYYCAAKNTLYSYYYWGQGTQVTVSS | high polyreactivity
37 | QVQLVESGGGLVQAGGSLRLSFAASGFIFGLNAKGWYRQAPAKERELVAAIRWRGDTTYYADSVKGRFTISRDNAKNTVYLQMKSLKPEDTAVYSCNAVVVPSRYDYWGQGTQVTVSS | low polyreactivity
38 | QVKLVESGGGLVQAGGSLRLSCAASGSIYWYAMGWYRQAPGKERELVAAISRRGGSTYYADSVKGRFTISRDNAKNTVYLQMNSLKPEDTAVYYCAVGIYGEYDYWGQGTQVTVSS | high polyreactivity
39 | QVQLVESGGGLVQAGGSLRLSCAASGRIFLRYAMGGYRAAPGKERELVAAISTRGSSTYYADSVKGRFTNSRDNAKNTVYLQMNSLKPEDTAVYYCNKAWGPRRGVNVAFDYWGQGTQVTVSS | low polyreactivity
40 | QVQPVESGGGLVQAGGSLRLSCADSGSIIYYNAMGWYRQAPGKEREFVAAITSSGGSTYADSVKGRFTISRDNGKNTVYIQMNSMKPEDTAVYYCATVAHGLLSGSGYIYAYDYWGQGTQVTVSS | low polyreactivity
41 | QVQLVESGGGLVQAGGSLRLSCAASGSTLYRYAMGWYRQAPGKERELVATIRWSGGSTYYADSVKGRFTISRDNAKNTVYLQMNSLKPEDTAVYYCAKRSSYGSSGRYYYWGQGTQVTVSS | high polyreactivity
42 | QVQLVESGGGLVQAGGSLRLTCAASGFIFRSYAMGWYRQAPGKERELVAAINSRAGNTYYADSVKGRFTISRDNAKNTVYLQMNSLKPEDTAVYYCAVRSYSPRSRGMGYWGQGTQVTVSS | high polyreactivity
43 | QVQLVESGGGLVQAGGSLRLSCAASGRTFGDYDMGWYRQAPGKERELVAAITSDGTTYYADSVKGRFTISRDNAKNTVYLQMNSLKPEDTAVYYCAADYWYVSWYDYWGQGTQVTVSS | low polyreactivity
